Source: US9518088B2, “Peptide-phospholipid conjugates” (Indiana University Research and Technology Corporation, priority 2011, dated 2016)
Where two headings read alike, the source gives them in different places.

Key:
[1] = Stability of the conjugates
[2] = Solubility in water / aqueous buffers
macrophages and T-cells = experiment: Affinity for macrophages and T-cells; format: cell-based
CD36 macrophage receptor = target: T1, CD36 macrophage receptor (Mus musculus, UniProt Q08857); experiment: CD36 macrophage receptor binding competition assay (biotinylated CuOxLDL binding to J774 macrophages); design: species or system murine
T1 construct: endogenous in cells; host or cells: J774 murine macrophage cell line
T1 sequence (Q08857 whole entry): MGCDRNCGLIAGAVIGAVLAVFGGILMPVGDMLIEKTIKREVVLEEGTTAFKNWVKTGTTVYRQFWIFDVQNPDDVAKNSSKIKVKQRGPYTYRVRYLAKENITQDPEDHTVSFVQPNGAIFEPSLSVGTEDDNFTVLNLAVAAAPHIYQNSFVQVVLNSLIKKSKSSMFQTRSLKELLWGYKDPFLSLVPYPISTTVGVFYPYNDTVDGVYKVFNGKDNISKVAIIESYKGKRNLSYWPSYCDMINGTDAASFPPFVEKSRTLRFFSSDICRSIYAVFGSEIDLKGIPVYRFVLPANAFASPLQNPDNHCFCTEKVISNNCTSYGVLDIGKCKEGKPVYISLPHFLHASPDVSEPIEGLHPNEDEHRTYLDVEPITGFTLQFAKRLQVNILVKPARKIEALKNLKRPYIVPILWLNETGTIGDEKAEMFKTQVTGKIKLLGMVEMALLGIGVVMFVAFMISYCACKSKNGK
Excerpt: Data are given as relative light units (RLU) per 100 ms (milliseconds). The plot is a representative experiment chosen from among at least four experiments. […] Data are shown as mean±SD (Standard Deviation) of B/B0 from 2 independent experiments with triplicate determination. […] Data are shown as mean±SD of B/B0 from two independent experiments with triplicate determination. Data in FIG. 3B and FIG. 3C were produced in parallel experiments.
The fixed concentration of biotinylated CuOxLDL (1.8 pmol apoB/mL, corresponding 1 μg apoB/mL or 0.14 nmol PC-epitopes/mL) was preincubated with compound 6, the control peptide TGTKGG, CuOxLDL, or native LDL, added at the concentrations indicated on the graphs, and then tested for binding as described in the experimental section. The highest CuOxLDL concentration tested was 200 μg/mL, which corresponds to approximately 28.3 nmoles of PC-epitopes/mL, as estimated from the previous observation that 1 mole of apoB-100 from CuOxLDL contains 78±15 moles of covalently attached phosphorus^10, which it is assumed are PC-epitopes only. The concentration of native LDL is plotted at equal protein concentration to CuOxLDL (and thus not as molar concentration of PC-epitopes). Each data point represents the mean and SD of 2 independent experiments of triplicate wells.
Each of peptide-phospholipid conjugates 6 and 23-27 were tested as competitors in a CD36 macrophage receptor binding competition assay, where fixed concentrations of CuOxLDL were incubated with the serially diluted competitor and controls in PBS buffer. The IC50 of each competitor is reported below in Table 1, confirming the affinity of the compounds of the invention for the CD36 macrophage receptor:
Binding of biotinylated OxLDL ligands to murine macrophages plated in microtiter wells was assessed by a chemiluminescent binding assay. Isolated human LDL was biotinylated according to manufacturer's protocol (Catalog No. 21326; Pierce Biotechnology). Native and biotinylated native LDL were subjected to copper sulfate oxidation in parallel to prepare unlabelled and biotinylated CuOxLDL ligands, respectively. It has been previously shown that CuOxLDL contains approximately 78 moles of PC-epitopes per mole of apoB-100 (the sole protein on LDL). The biotinylated native LDL and CuOxLDL ligands of equal protein concentration were serially diluted and tested for binding to adherent macrophages. The specificity of the binding of biotinylated CuOxLDL to macrophages was tested in competition experiments, where fixed concentrations of biotinylated CuOxLDL were incubated with the serially diluted competitor and controls in PBS. The ligand-competitor solutions were incubated overnight at 4° C. Murine macrophages from the J774 cell line were cultured in 10% fetal bovine serum in DMEM (DMEM-10) and plated in 100 μL L929-fibroblast conditioned media at 100,000 or 25,000 cells/well, respectively, in sterile 96-well flat-bottom white plates (Greiner Bio-One). The plating media consisted of 20% L929-fibroblast conditioned DMEM-10 and 80% fresh DMEM-10 and served as a source of growth factors, including macrophage colony-stimulating factor. After 72 hours, the plates were washed gently 5 times with PBS using a microtiter plate washer (Dynex Technologies, Chantilly, Va.), and wells were blocked with ice-cold 200 μL DMEM for 30 min, while plates were kept on ice. After washing, macrophages were incubated with ice-cold ligand and ligand-competitor solutions (100 μL/well) for 2 hours on ice, washed again, and fixed with ice-cold 3.7% formaldehyde in PBS for 30 min in the dark. After fixing the macrophages, the remaining part of the assay was carried out at room temperature. Macrophage-bound biotinylated OxLDL ligands were detected with NeutrAvidin-conjugated alkaline phosphatase (Pierce Biotechnology), LumiPhos 530 (Lumigen, Southfield, Mich.), and a Dynex Luminometer (Dynex Technologies). […]

Row | Structure (SMILES) | stability [1] | water solubility / solubility in aqueous buffers [2] | IC50 (CD36 macrophage receptor) | also measured
1 | CCCCCCCCCCCCCCCC(=O)OCC(COP(=O)([O-])OCC[N+](C)(C)C)OC(=O)CCCCOCCCC[C@H](NC(=O)[C@H](C)NC(=O)[C@H](C)NC(C)=O)C(=O)N[C@@H](C)C(=O)N[C@@H](Cc1ccc(O)cc1)C(=O)O (stereo partly shown) [Compound 3] | stable | poor water solubility |  | 
2 | CCCCCCCCCCCCCCCC(=O)OC[C@H](COP(=O)([O-])OCC[N+](C)(C)C)OC(=O)CCCCOCCCC[C@H](NC(=O)[C@@H](NC(=O)CNC(=O)[C@@H](NC(C)=O)[C@@H](C)O)[C@@H](C)O)C(=O)NCC(=O)N[C@@H](Cc1ccc(O)cc1)C(=O)O [Compound 4] | stable | poor water solubility |  | 
3 | CCCCCCCCCCCCCCCC(=O)OC[C@H](COP(=O)([O-])OCC[N+](C)(C)C)OC(=O)CCCCCCCCC[C@H](NC(=O)[C@@H](NC(=O)CNC(=O)[C@@H](NC(C)=O)[C@@H](C)O)[C@@H](C)O)C(=O)NCC(=O)N[C@@H](Cc1ccc(O)cc1)C(=O)O [Compound 5] | stable | poor water solubility |  | 
4 | CCCCCCCCCCCCCCCC(=O)OC[C@H](COP(=O)([O-])OCC[N+](C)(C)C)OC(=O)CCCCN(C)CCCC[C@H](NC(=O)[C@@H](NC(=O)CNC(=O)[C@@H](NC(C)=O)[C@@H](C)O)[C@@H](C)O)C(=O)NCC(=O)NCC(=O)O [Compound 6] | stable | soluble in aqueous buffers | 60 µM | affinity for macrophages and T-cells (macrophages and T-cells): showed affinity for macrophages and T-cells; competition with biotinylated CuOxLDL binding to macrophages (CD36 macrophage receptor; J774 macrophages, fixed biotinylated CuOxLDL 1.8 pmol apoB/mL (1 μg apoB/mL), FIG. 3B/3C, mean of 2 independent experiments, triplicate wells): more than 99%
5 | CCCCCCCCCCCCCCCC(=O)OC[C@H](COP(=O)([O-])OCC[N+](C)(C)C)OC(=O)CCCCN(C)CCCC[C@H](NC(C)=O)C(=O)NCC(=O)NCC(=O)O [Compound 23] |  |  |  | IC50 (CD36 macrophage receptor; competitor serially diluted, fixed concentration of CuOxLDL, PBS buffer, J774 macrophages, read-out: IC50): 38 µM
6 | CCCCCCCCCCCCCCCC(=O)OC[C@H](COP(=O)([O-])OCC[N+](C)(C)C)OC(=O)CCCCN(C)CCCC[C@H](NC(=O)[C@H](C)NC(C)=O)C(=O)NCC(=O)NCC(=O)O [Compound 24] |  |  | 131 µM | 
7 | CCCCCCCCCCCCCCCC(=O)OC[C@H](COP(=O)([O-])OCC[N+](C)(C)C)OC(=O)CCCCN(C)CCCC[C@H](NC(=O)[C@@H](NC(C)=O)C(C)C)C(=O)NCC(=O)NCC(=O)O [Compound 25] |  |  | 55 µM | 
8 | CCCCCCCCCCCCCCCC(=O)OC[C@H](COP(=O)([O-])OCC[N+](C)(C)C)OC(=O)CCCCN(C)CCCC[C@H](NC(=O)[C@H](Cc1ccccc1)NC(C)=O)C(=O)NCC(=O)NCC(=O)O [Compound 26] |  |  | 47 µM | 
9 | CCCCCCCCCCCCCCCC(=O)OC[C@H](COP(=O)([O-])OCC[N+](C)(C)C)OC(=O)CCCCN(C)CCCC[C@H](NC(=O)[C@H](Cc1ccccc1)NC(=O)[C@H](C)NC(C)=O)C(=O)NCC(=O)NCC(=O)O [Compound 27] |  |  | 47 µM | 
